These results are taken from patent US7211395 (dated 2007).

Assay [1] concerns the target T1, bovine serum albumin (bovine, UniProt P02769). Briefly: FP, pH 6.2, no NaCl.
A further assay has as its target T2, chicken ovalbumin (chicken, UniProt P01012).
T2 chain: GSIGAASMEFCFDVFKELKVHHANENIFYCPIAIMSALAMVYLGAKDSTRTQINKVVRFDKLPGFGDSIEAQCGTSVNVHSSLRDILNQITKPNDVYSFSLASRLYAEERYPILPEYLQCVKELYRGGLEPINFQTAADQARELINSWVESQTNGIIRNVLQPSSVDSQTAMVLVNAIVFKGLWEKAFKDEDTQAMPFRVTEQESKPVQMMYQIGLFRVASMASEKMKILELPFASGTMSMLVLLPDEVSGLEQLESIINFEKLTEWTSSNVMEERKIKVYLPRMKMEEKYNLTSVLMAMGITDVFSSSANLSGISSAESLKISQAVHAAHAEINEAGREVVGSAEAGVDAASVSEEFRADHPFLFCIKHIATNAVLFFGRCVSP
Put plainly: FP, PBS pH 7.4.

For another assay, the target named is T3, pig serum albumin (pig, UniProt P08835).
T3 chain: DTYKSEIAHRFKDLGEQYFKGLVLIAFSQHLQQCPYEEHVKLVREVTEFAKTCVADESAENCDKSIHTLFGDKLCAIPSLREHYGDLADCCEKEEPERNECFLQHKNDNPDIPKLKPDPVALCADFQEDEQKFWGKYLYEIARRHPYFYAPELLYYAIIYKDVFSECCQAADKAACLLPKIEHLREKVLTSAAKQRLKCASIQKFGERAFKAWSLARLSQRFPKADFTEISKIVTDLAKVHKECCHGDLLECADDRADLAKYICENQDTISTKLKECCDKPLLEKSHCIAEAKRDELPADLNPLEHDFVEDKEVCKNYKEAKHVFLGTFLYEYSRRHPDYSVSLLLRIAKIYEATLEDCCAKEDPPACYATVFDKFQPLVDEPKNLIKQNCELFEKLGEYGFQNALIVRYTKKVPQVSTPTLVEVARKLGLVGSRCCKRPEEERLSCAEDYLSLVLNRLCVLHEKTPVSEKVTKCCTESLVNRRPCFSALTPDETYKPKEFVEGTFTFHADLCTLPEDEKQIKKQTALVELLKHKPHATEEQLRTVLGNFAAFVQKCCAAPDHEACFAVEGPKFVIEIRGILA
Briefly: FP, pH 6.2, no NaCl.

In assay [2] the target is T4, mouse serum albumin (mouse, UniProt P07724). Put plainly: FP, pH 6.2, no NaCl.
T4 sequence (P07724 25-608): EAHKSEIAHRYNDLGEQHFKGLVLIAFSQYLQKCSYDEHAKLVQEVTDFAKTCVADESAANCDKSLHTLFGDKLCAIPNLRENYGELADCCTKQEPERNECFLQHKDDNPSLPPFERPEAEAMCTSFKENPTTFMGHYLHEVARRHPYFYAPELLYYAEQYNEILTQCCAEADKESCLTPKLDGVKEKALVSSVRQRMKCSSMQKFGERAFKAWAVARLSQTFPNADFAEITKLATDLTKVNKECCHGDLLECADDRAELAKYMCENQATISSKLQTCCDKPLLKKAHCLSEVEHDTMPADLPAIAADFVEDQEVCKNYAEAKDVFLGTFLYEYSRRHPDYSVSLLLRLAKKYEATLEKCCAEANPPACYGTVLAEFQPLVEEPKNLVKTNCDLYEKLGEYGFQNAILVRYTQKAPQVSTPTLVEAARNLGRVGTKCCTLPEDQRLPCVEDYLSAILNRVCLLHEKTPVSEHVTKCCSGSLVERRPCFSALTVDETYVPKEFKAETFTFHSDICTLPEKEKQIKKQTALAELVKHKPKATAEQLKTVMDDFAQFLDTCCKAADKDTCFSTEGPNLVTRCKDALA
In assay [3] the target is T4, mouse serum albumin. Briefly: FP, PBS pH 7.4.
For another assay, the target named is T5, rabbit serum albumin (rabbit, UniProt P49065).
T5 chain: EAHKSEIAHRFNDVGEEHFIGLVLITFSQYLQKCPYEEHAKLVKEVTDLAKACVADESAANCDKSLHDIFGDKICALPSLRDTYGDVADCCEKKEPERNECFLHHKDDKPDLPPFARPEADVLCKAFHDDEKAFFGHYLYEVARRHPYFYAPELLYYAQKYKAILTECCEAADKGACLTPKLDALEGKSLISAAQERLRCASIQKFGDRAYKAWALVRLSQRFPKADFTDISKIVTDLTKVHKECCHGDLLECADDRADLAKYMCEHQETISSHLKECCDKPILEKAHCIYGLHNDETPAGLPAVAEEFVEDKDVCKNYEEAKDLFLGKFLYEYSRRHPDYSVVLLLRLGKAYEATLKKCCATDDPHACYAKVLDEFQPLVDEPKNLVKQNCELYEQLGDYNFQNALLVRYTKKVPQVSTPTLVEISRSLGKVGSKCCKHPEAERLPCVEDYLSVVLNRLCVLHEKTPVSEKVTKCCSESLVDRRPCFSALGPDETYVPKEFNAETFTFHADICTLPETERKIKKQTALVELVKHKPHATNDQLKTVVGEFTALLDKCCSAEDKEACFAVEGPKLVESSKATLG
Put plainly: FP, PBS pH 7.4.

Another assay deals with T6, rhesus serum albumin (rhesus macaque, UniProt Q28522).
T6 chain: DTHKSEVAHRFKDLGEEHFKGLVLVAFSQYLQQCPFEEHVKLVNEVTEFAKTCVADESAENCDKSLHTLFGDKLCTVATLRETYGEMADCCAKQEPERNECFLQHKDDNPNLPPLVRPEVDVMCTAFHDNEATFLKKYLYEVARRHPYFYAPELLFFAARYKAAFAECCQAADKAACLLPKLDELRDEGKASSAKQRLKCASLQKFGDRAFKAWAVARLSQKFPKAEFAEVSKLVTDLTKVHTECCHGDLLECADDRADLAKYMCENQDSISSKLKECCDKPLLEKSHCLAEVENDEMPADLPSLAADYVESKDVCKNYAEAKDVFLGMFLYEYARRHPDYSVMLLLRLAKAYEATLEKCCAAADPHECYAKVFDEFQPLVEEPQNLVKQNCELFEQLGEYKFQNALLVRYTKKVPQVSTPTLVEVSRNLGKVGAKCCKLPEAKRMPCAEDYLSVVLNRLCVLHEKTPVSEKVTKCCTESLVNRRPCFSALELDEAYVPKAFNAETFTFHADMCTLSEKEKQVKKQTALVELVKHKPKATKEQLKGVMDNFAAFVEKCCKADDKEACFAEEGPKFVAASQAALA
Put plainly: FP, pH 6.2, no NaCl.

Assay [4] has as its target T7, human serum albumin (HSA) (human, UniProt P02768). Put plainly: FP, pH 7.4, 0.14 M NaCl, 0.1% caprylate.
Assay [5] deals with T7, human serum albumin (HSA). Put plainly: FP, PBS pH 7.4.
In assay [6] the target is T1, bovine serum albumin. Put plainly: FP, PBS pH 7.4.

The Kd is a measure of binding affinity in units of concentration. Read a high Kd as weaker binding.

T1 sequence (P02769 25-607): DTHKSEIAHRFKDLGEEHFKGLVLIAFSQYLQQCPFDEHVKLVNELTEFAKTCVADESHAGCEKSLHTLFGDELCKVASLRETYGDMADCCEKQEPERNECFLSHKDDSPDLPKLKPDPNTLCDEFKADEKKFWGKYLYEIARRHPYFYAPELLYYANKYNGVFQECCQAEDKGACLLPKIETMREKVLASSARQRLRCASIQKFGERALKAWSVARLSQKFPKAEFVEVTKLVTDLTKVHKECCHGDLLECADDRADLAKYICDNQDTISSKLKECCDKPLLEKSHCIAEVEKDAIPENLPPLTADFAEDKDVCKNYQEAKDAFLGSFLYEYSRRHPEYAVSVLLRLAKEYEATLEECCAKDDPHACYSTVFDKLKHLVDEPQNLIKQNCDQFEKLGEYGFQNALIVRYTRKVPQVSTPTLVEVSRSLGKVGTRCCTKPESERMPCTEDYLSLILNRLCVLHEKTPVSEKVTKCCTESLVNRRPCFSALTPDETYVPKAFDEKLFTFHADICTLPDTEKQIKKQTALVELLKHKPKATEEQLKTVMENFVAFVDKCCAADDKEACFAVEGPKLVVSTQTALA

B1: DX-321 (peptide)
chain: AEGTGDRNMCKFSWIRSPAFCARADPEXK
modifications: disulfide cyclic, N-acetyl, C-amide, X = 6-aminohexanoic acid, fluorescein on Lys
For B1, the Kd with bovine serum albumin [1] was 21 µM; in the assay with chicken ovalbumin, more than 200 µM; in the assay with pig serum albumin, 21 µM; with mouse serum albumin [2], more than 200 µM; with mouse serum albumin [3] it was more than 200 µM; in the assay with rabbit serum albumin, more than 200 µM. Besides, the Kd with rhesus serum albumin was 38 µM; in [4], 75 µM; in assay [5], 84 µM; with bovine serum albumin [6], more than 200 µM.
